Test results reported in PMC4251497 (2014).

B1: Phenylalanine hydroxylase regulatory domain (RDPheH) 1-117 (protein)
chain: MAAVVLENGVLSRKLSDFGQETSYIEDNSNQNGAISLIFSLKEEVGALAKVLRLFEENDINLTHIESRPSRLNKDEYEFFTYLDKRTKPVLGSIIKSLRNDIGATVHELSRDKEKNT
B2: Phenylalanine hydroxylase regulatory domain (RDPheH25-117) 25-117 (protein)
chain: IEDNSNQNGAISLIFSLKEEVGALAKVLRLFEENDINLTHIESRPSRLNKDEYEFFTYLDKRTKPVLGSIIKSLRNDIGATVHELSRDKEKNT

Molecular target: the molecule itself
Assay: analytical ultracentrifugation

Row | Protein | Kd
1 | B1 | 46 µM
2 | B2 | 46 µM
